Source: patent US20210388087A1 (Chugai, published 2021)
Positions count from the first letter of the chain named. Values belong to the binder of their own block, whether it stands above or below them.

Molecular target: T1, Human CD137 ECD (human)
T1 construct: entry includes C-terminal His-tag and biotin acceptor peptide; also called human CD137 extracellular domain; 4-1BB
Assay: Biacore SPR, vs parent H183/L072

T1 sequence (chain, as listed by the source limits assumed): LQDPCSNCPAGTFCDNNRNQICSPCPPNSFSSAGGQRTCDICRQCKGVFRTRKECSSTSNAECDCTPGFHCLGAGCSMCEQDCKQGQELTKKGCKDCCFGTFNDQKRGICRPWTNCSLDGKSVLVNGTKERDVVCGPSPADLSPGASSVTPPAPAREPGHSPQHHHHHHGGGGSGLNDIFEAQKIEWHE

fold change of affinity: 0.9 fold
B1: H183/L072 VL Q24F (antibody, name in Kabat numbering, V domains shown)
VH: QVQLVESGGGLVQPGRSLRLSCAASGFTFSNAWMHWVRQAPGKGLEWVAQIKDKGNAYAAYYAPSVKGRFTISRDDSKNSIYLQMNSLKTEDTAVYYCHYVHYASASTVLPAFGVDAWGQGTTVTVSS
VL: DIVMTQSPLSLPVTPGEPASISCFASQELVHMNRNTYLHWYQQKPGQAPRLLIYKVSNRFPGVPDRFSGSGSGTDFTLKISRVEAEDVGVYYCAQGTSVPFTFGQGTKLEIK
notes: Dual-Ig

fold change of affinity: 1 fold
B2: H183/L072 VL Q24W (antibody, name in Kabat numbering, V domains shown)
VH: B1 VH
VL: B1 VL with F24W
notes: Dual-Ig

fold change of affinity: 1 fold
B3: H183/L072 VL Q24H (antibody, name in Kabat numbering, V domains shown)
VH: B1 VH
VL: B1 VL with F24H
notes: Dual-Ig

fold change of affinity: 0 fold
B4: H183/L072 VL Q90L (antibody, name in Kabat numbering, V domains shown)
VH: B1 VH
VL: B1 VL with F24Q, Q95L
notes: Dual-Ig

fold change of affinity: 0.9 fold
B5: H183/L072 VL Q24N (antibody, name in Kabat numbering, V domains shown)
VH: B1 VH
VL: B1 VL with F24N
notes: Dual-Ig

fold change of affinity: 0.8 fold
B6: H183/L072 VL Q27N (antibody, name in Kabat numbering, V domains shown)
VH: B1 VH
VL: B1 VL with F24Q, Q27N
notes: Dual-Ig

fold change of affinity: 0 fold
B7: H183/L072 VL Q90E (antibody, name in Kabat numbering, V domains shown)
VH: B1 VH
VL: B1 VL with F24Q, Q95E
notes: Dual-Ig

fold change of affinity: 1 fold
B8: H183/L072 VL Q24G (antibody, name in Kabat numbering, V domains shown)
VH: B1 VH
VL: B1 VL with F24G
notes: Dual-Ig

fold change of affinity: 0.7 fold
B9: H183/L072 VL Q27I (antibody, name in Kabat numbering, V domains shown)
VH: B1 VH
VL: B1 VL with F24Q, Q27I
notes: Dual-Ig

fold change of affinity: 0.1 fold
B10: H183/L072 VL Q27P (antibody, name in Kabat numbering, V domains shown)
VH: B1 VH
VL: B1 VL with F24Q, Q27P
notes: Dual-Ig

fold change of affinity: 0.9 fold
B11: H183/L072 VL Q24L (antibody, name in Kabat numbering, V domains shown)
VH: B1 VH
VL: B1 VL with F24L
notes: Dual-Ig

fold change of affinity: 0.8 fold
B12: H183/L072 VL Q27L (antibody, name in Kabat numbering, V domains shown)
VH: B1 VH
VL: B1 VL with F24Q, Q27L
notes: Dual-Ig

fold change of affinity: 1 fold
B13: H183/L072 VL Q27E (antibody, name in Kabat numbering, V domains shown)
VH: B1 VH
VL: B1 VL with F24Q, Q27E
notes: Dual-Ig

fold change of affinity: 0.9 fold
B14: H183/L072 VL Q24R (antibody, name in Kabat numbering, V domains shown)
VH: B1 VH
VL: B1 VL with F24R
notes: Dual-Ig

fold change of affinity: 0.5 fold
B15: H183/L072 VL Q27W (antibody, name in Kabat numbering, V domains shown)
VH: B1 VH
VL: B1 VL with F24Q, Q27W
notes: Dual-Ig

fold change of affinity: 0.9 fold
B16: H183/L072 VL Q27R (antibody, name in Kabat numbering, V domains shown)
VH: B1 VH
VL: B1 VL with F24Q, Q27R
notes: Dual-Ig

fold change of affinity: 0.9 fold
B17: H183/L072 VL Q27G (antibody, name in Kabat numbering, V domains shown)
VH: B1 VH
VL: B1 VL with F24Q, Q27G
notes: Dual-Ig

fold change of affinity: 0 fold
B18: H183/L072 VL Q90M (antibody, name in Kabat numbering, V domains shown)
VH: B1 VH
VL: B1 VL with F24Q, Q95M
notes: Dual-Ig

fold change of affinity: 0 fold
B19: H183/L072 VL Q90R (antibody, name in Kabat numbering, V domains shown)
VH: B1 VH
VL: B1 VL with F24Q, Q95R
notes: Dual-Ig

fold change of affinity: 1 fold
B20: H183/L072 VL Q24K (antibody, name in Kabat numbering, V domains shown)
VH: B1 VH
VL: B1 VL with F24K
notes: Dual-Ig

fold change of affinity: 1 fold
B21: H183/L072 VL Q24S (antibody, name in Kabat numbering, V domains shown)
VH: B1 VH
VL: B1 VL with F24S
notes: Dual-Ig

fold change of affinity: 0.2 fold
B22: H183/L072 VL Q90H (antibody, name in Kabat numbering, V domains shown)
VH: B1 VH
VL: B1 VL with F24Q, Q95H
notes: Dual-Ig

fold change of affinity: 0.9 fold
B23: H183/L072 VL Q27M (antibody, name in Kabat numbering, V domains shown)
VH: B1 VH
VL: B1 VL with F24Q, Q27M
notes: Dual-Ig

fold change of affinity: 0 fold
B24: H183/L072 VL Q90K (antibody, name in Kabat numbering, V domains shown)
VH: B1 VH
VL: B1 VL with F24Q, Q95K
notes: Dual-Ig

fold change of affinity: 0 fold
B25: H183/L072 VL Q90F (antibody, name in Kabat numbering, V domains shown)
VH: B1 VH
VL: B1 VL with F24Q, Q95F
notes: Dual-Ig

fold change of affinity: 0.7 fold
B26: H183/L072 VL Q27Y (antibody, name in Kabat numbering, V domains shown)
VH: B1 VH
VL: B1 VL with F24Q, Q27Y
notes: Dual-Ig

fold change of affinity: 0.9 fold
B27: H183/L072 VL Q27T (antibody, name in Kabat numbering, V domains shown)
VH: B1 VH
VL: B1 VL with F24Q, Q27T
notes: Dual-Ig

fold change of affinity: 0 fold
B28: H183/L072 VL Q24P (antibody, name in Kabat numbering, V domains shown)
VH: B1 VH
VL: B1 VL with F24P
notes: Dual-Ig

fold change of affinity: 0 fold
B29: H183/L072 VL Q90D (antibody, name in Kabat numbering, V domains shown)
VH: B1 VH
VL: B1 VL with F24Q, Q95D
notes: Dual-Ig

fold change of affinity: 0.9 fold
B30: H183/L072 VL Q24Y (antibody, name in Kabat numbering, V domains shown)
VH: B1 VH
VL: B1 VL with F24Y
notes: Dual-Ig

fold change of affinity: 0.9 fold
B31: H183/L072 VL Q27H (antibody, name in Kabat numbering, V domains shown)
VH: B1 VH
VL: B1 VL with F24Q, Q27H
notes: Dual-Ig

fold change of affinity: 0 fold
B32: H183/L072 VL Q90P (antibody, name in Kabat numbering, V domains shown)
VH: B1 VH
VL: B1 VL with F24Q, Q95P
notes: Dual-Ig

fold change of affinity: 0.8 fold
B33: H183/L072 VL Q27V (antibody, name in Kabat numbering, V domains shown)
VH: B1 VH
VL: B1 VL with F24Q, Q27V
notes: Dual-Ig

fold change of affinity: 0.6 fold
B34: H183/L072 VL Q27F (antibody, name in Kabat numbering, V domains shown)
VH: B1 VH
VL: B1 VL with F24Q, Q27F
notes: Dual-Ig

fold change of affinity: 0 fold
B35: H183/L072 VL Q90G (antibody, name in Kabat numbering, V domains shown)
VH: B1 VH
VL: B1 VL with F24Q, Q95G
notes: Dual-Ig

fold change of affinity: 0.8 fold
B36: H183/L072 VL Q27S (antibody, name in Kabat numbering, V domains shown)
VH: B1 VH
VL: B1 VL with F24Q, Q27S
notes: Dual-Ig

fold change of affinity: 0.9 fold
B37: H183/L072 VL Q24V (antibody, name in Kabat numbering, V domains shown)
VH: B1 VH
VL: B1 VL with F24V
notes: Dual-Ig

fold change of affinity: 0.9 fold
B38: H183/L072 VL Q24I (antibody, name in Kabat numbering, V domains shown)
VH: B1 VH
VL: B1 VL with F24I
notes: Dual-Ig

fold change of affinity: 1 fold
B39: H183/L072 VL Q24M (antibody, name in Kabat numbering, V domains shown)
VH: B1 VH
VL: B1 VL with F24M
notes: Dual-Ig

fold change of affinity: 0.9 fold
B40: H183/L072 VL Q27D (antibody, name in Kabat numbering, V domains shown)
VH: B1 VH
VL: B1 VL with F24Q, Q27D
notes: Dual-Ig

fold change of affinity: 1 fold
B41: H183/L072 VL Q27A (antibody, name in Kabat numbering, V domains shown)
VH: B1 VH
VL: B1 VL with F24Q, Q27A
notes: Dual-Ig

fold change of affinity: 1 fold
B42: H183/L072 VL Q24T (antibody, name in Kabat numbering, V domains shown)
VH: B1 VH
VL: B1 VL with F24T
notes: Dual-Ig

fold change of affinity: 0 fold
B43: H183/L072 VL Q90I (antibody, name in Kabat numbering, V domains shown)
VH: B1 VH
VL: B1 VL with F24Q, Q95I
notes: Dual-Ig

fold change of affinity: 0 fold
B44: H183/L072 VL Q90A (antibody, name in Kabat numbering, V domains shown)
VH: B1 VH
VL: B1 VL with F24Q, Q95A
notes: Dual-Ig

fold change of affinity: 0.9 fold
B45: H183/L072 VL Q27K (antibody, name in Kabat numbering, V domains shown)
VH: B1 VH
VL: B1 VL with F24Q, Q27K
notes: Dual-Ig

fold change of affinity: 0 fold
B46: H183/L072 VL Q90N (antibody, name in Kabat numbering, V domains shown)
VH: B1 VH
VL: B1 VL with F24Q, Q95N
notes: Dual-Ig
